The supplement of paper PMC7877785
± gives the uncertainty stated by the source.

Experiment: self-splicing fitness, log relative to wild type (ln ratio); higher = more splicing; Tetrahymena group I intron in knt gene, E. coli kanamycin selection, DiMSum; sequences stand for … in CUCUCU…GGAGGGAAAAGUUAUCAGGCAUGCACCUGGUAGCUAGUCUUUAAACCAAUAGAUUGCAUCGGUUUAAAAGGCAAGACCGUCAAAUUGCGGGAAAGGGGUCAACAGCCGUUCAGUACCAAGUCUCAGGGGAAACUUUGAGAUGGCCUUGCAAAGGGUAUGGUAAUAAGCUGACGGACAUGGUCCUAACCACGCAGCCAAGUCCUAAGUCAACAGAUCUUCUGUUGAUAUGGAUGCAGUUCACAGACUAAAUGUCGGUCGGGGAAGAUGUAUUCUUCUCAUAAGAUAUAGUCGGACCUCUCCUUAAUGGGAGCUAGCGGAUGAAGUGAUGCAACACUGGAGCCGCUGGGAACUAAUUUGUAUGCGAAAGUAUAUUGAUUAGUUUUGGAGUACUCGUGGUCG
Summary of the method: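 Six replicate transformations of E. coli BL21(DE3) with a pET-22b(+) library were grown overnight at 37°C or 30°C. The library randomised all eight P1ex-region intron nucleotides, the intron lying in the knt kanamycin-resistance gene, and plates were LB agar with or without 25 μg/mL kanamycin plus 100 μg/mL carbenicillin, 50 μM IPTG and 0.2% rhamnose. Pooled colonies were amplicon-sequenced on an Illumina HiSeq 2500, and fitness is the DiMSum error-weighted combination of wild-type-normalised replicate fold changes, kanamycin versus none.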

Sequence	self-splicing fitness (ln) (30 °C)	self-splicing fitness (ln) (37 °C)
CCCAAGCAAUAUUACGUAUA	-2.91 ± 0.23	-3.24 ± 0.23
CCCAAGCAAUAUUACGUAUG	-4.01 ± 0.15	-1.47 ± 0.11
CCCAAGCAAUAUUACGUGCA	-3.83 ± 0.23	-2.57 ± 0.16
CCCAAGCAAUAUUACGUGUG	-2.98 ± 0.071	-3.12 ± 0.094
CCCAAGCAAUAUUACGUUAU	-4.09 ± 0.2	-2.96 ± 0.19
CCCCAGCAAUAUUACGAAAG	-4.79 ± 0.23	-1.93 ± 0.12
CCCCAGCAAUAUUACGAAUC	-3.68 ± 0.16	-2.49 ± 0.22
CCCCAGCAAUAUUACGACAA	–	-2.78 ± 0.28
CCCCAGCAAUAUUACGACUG	-3.32 ± 0.11	-2.97 ± 0.17
CCCCAGCAAUAUUACGAGGG	-3.83 ± 0.15	-2.78 ± 0.18
CCCCAGCAAUAUUACGAGGU	-3.6 ± 0.12	-2.23 ± 0.12
CCCCAGCAAUAUUACGAGUA	-2.91 ± 0.12	-2.58 ± 0.14
CCCCAGCAAUAUUACGAUCA	-1.97 ± 0.12	-2.68 ± 0.23
CCCCAGCAAUAUUACGAUGU	-4.53 ± 0.2	-3.11 ± 0.17
CCCCAGCAAUAUUACGCACC	-2.46 ± 0.18	-2.32 ± 0.24
CCCCAGCAAUAUUACGCAGC	-3.44 ± 0.15	-2.84 ± 0.21
CCCCAGCAAUAUUACGCCGC	-2.93 ± 0.31	-2.26 ± 0.42
CCCCAGCAAUAUUACGCCGU	-3.04 ± 0.16	-2.23 ± 0.21
CCCCAGCAAUAUUACGCCUA	-2.61 ± 0.18	-2.89 ± 0.32
CCCCAGCAAUAUUACGCCUC	-3.25 ± 0.21	-1.6 ± 0.21
CCCCAGCAAUAUUACGCGAU	-4.32 ± 0.25	-2.36 ± 0.28
CCCCAGCAAUAUUACGCGGU	-3.91 ± 0.13	-2.17 ± 0.15
CCCCAGCAAUAUUACGCUCA	-3.21 ± 0.24	-0.421 ± 0.17
CCCCAGCAAUAUUACGCUCC	-3.09 ± 0.36	-2.91 ± 0.47

Sequence	self-splicing fitness (ln) (30 °C)	self-splicing fitness (ln) (37 °C)
CCCCAGCAAUAUUACGGGAG	-3.08 ± 0.17	-2.61 ± 0.18
CCCCAGCAAUAUUACGGGGA	-3.15 ± 0.14	-3 ± 0.15
CCCCAGCAAUAUUACGGUAA	-3.78 ± 0.15	-2.78 ± 0.16
CCCCAGCAAUAUUACGGUUA	-3.5 ± 0.17	-2.61 ± 0.13
CCCCAGCAAUAUUACGUACU	-3.21 ± 0.22	-2.67 ± 0.27
CCCCAGCAAUAUUACGUCGG	-3.66 ± 0.16	-2.86 ± 0.33
CCCCAGCAAUAUUACGUGAG	-1.84 ± 0.07	-1.33 ± 0.084
CCCCAGCAAUAUUACGUGCA	-4.13 ± 0.18	-2.17 ± 0.14
CCCCAGCAAUAUUACGUGCG	-3.1 ± 0.099	-2.58 ± 0.14
CCCCAGCAAUAUUACGUGUU	-3.79 ± 0.12	-3.3 ± 0.17
CCCCAGCAAUAUUACGUUUU	-4.12 ± 0.14	-2.55 ± 0.11
CCCGAGCAAUAUUACGAAUG	-2.61 ± 0.18	-1.41 ± 0.22
CCCGAGCAAUAUUACGAGGG	-4.84 ± 0.36	-2.58 ± 0.22
CCCGAGCAAUAUUACGAGUG	-3.04 ± 0.17	-1.99 ± 0.13
CCCGAGCAAUAUUACGAUCC	-2.76 ± 0.24	-2.71 ± 0.27
CCCGAGCAAUAUUACGCAAG	-2.73 ± 0.27	–
CCCGAGCAAUAUUACGCAUG	-3.7 ± 0.15	-2.64 ± 0.15
CCCGAGCAAUAUUACGCCGG	-3.9 ± 0.37	-2.23 ± 0.34
CCCGAGCAAUAUUACGCCUG	-4.16 ± 0.39	–
CCCGAGCAAUAUUACGCGAU	-1.12 ± 0.19	-2.5 ± 0.34
CCCGAGCAAUAUUACGCUCA	-2.87 ± 0.32	-2.7 ± 0.36
CCCGAGCAAUAUUACGGAAG	-3.91 ± 0.24	-2.29 ± 0.15
CCCGAGCAAUAUUACGGCGA	-2.7 ± 0.2	-1.19 ± 0.12
CCCGAGCAAUAUUACGGUCC	-2.99 ± 0.26	-2.61 ± 0.22
